Measurements from PMC11067744.

Target: YenB (UniProt B6A880)
Experiment: SEC-MALS

UniProt B6A880, sequence (B6A880 whole entry): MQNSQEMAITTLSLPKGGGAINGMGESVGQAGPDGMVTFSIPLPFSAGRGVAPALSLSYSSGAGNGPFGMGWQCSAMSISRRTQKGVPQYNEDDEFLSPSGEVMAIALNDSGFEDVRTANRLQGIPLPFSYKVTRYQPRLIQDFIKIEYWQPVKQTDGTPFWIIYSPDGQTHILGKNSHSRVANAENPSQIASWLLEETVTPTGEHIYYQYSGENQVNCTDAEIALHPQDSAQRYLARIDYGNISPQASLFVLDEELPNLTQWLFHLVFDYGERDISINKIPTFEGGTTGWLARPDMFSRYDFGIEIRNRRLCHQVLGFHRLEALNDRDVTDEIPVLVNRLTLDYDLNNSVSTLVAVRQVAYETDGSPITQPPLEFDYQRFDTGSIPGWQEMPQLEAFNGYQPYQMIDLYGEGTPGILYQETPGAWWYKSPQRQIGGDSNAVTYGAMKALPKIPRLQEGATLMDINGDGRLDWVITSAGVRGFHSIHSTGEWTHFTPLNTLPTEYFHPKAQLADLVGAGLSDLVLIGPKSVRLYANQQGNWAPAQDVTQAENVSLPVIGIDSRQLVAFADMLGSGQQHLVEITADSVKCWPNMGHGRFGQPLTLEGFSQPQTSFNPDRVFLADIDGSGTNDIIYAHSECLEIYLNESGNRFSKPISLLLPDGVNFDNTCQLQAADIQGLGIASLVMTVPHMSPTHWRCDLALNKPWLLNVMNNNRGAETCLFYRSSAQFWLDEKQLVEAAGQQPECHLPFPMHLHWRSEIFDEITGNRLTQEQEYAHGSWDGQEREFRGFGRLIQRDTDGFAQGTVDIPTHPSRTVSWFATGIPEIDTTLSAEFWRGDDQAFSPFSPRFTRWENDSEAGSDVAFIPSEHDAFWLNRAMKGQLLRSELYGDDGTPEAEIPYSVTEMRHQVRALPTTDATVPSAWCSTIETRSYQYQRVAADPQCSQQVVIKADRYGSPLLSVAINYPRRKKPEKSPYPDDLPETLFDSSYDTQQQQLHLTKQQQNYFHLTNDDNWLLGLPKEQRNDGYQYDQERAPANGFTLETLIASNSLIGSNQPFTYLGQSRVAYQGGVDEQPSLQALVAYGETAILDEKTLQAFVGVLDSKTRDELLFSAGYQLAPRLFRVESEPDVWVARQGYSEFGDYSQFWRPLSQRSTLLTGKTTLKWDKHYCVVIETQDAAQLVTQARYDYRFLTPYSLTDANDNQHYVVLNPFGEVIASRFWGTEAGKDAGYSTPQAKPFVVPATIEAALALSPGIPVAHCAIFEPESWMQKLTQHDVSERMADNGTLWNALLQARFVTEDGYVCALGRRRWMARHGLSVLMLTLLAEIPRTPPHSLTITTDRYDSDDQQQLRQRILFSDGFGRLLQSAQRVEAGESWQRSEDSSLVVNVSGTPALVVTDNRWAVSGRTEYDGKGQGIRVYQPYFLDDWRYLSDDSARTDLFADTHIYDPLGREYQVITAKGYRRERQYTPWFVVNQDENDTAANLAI

| Substance | stoichiometry N |
| --- | --- |
| YenC3^CTD (domain or fragment) | 1 |
| YenC3^NTD (domain or fragment) | 1 |
